In patent publication US20230391826A1, “COMPOSITIONS AND METHODS FOR TREATING DISEASES” (Sanford Burnham Prebys Medical Discovery Institute, priority 2020, published 2023):

Legend:
[1] = target: EphA2 extracellular domain fused to the Fc portion of an antibody (EphA2-Fc); assay: ELISA, inhibition of ephrinA5-AP binding to immobilized EphA2-Fc
[2] = target: EphA2 extracellular domain fused to the Fc portion of an antibody (EphA2-Fc); assay: ELISA, inhibition of ephrinA5-AP binding to immobilized EphA2-Fc; representative experiment, triplicates
[3] = target: EphA2 endogenously expressed on PC3 prostate cancer cells (UniProt P29317); assay: cell-based or functional assay
EphA2 endogenously expressed on PC3 prostate cancer cells, sequence (P29317 24-976 limits assumed): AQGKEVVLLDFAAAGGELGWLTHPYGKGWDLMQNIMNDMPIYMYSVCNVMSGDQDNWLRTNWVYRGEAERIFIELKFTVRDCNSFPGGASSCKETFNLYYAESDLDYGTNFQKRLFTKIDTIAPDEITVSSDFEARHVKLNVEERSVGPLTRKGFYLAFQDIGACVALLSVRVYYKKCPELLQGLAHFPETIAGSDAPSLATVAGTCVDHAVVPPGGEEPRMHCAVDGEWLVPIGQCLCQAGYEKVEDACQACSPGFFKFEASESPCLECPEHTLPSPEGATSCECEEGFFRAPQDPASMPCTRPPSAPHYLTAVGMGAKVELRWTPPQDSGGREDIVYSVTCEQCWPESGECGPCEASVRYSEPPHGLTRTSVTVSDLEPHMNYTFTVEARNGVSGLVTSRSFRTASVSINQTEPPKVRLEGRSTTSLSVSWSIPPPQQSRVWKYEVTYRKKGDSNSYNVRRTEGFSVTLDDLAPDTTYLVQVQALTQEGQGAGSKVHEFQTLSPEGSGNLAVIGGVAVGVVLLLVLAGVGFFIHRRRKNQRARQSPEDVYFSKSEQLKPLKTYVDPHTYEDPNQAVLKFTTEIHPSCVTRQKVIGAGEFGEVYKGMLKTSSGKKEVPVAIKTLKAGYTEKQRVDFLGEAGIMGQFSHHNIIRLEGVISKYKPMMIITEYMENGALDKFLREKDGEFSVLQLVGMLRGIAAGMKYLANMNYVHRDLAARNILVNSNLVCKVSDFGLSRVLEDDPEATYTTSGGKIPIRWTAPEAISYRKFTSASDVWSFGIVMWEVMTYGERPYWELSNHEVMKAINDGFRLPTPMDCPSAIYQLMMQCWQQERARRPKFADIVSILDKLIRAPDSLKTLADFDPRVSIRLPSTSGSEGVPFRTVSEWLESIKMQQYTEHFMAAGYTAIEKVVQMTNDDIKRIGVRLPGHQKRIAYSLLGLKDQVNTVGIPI

m-ephrinA1 (monomer) (ligand), sequence (P20827 19-182): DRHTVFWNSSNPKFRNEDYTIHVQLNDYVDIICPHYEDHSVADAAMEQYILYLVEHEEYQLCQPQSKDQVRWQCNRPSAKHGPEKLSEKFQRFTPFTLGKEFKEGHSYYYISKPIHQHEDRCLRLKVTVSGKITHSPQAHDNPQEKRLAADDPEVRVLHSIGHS

| Substance | IC50 [1] [nM] | IC50 [2] [nM] | Blig (bias factor) [3] | EC50 PY588 [3] [nM] | EC50 pAKT inhib [3] [nM] | EC50 pY588 [3] [nM] | Emax PY588 (normalized to ephrinA1-Fc) [3] | Etop pAKT inhib [3] | IC50 PAKT [3] [nM] | βlig (bias factor) [3] | Etop pY588 (normalized to ephrinA1-Fc) [3] |
| --- | --- | --- | --- | --- | --- | --- | --- | --- | --- | --- | --- |
| CGA-WLA-YRPKam dimer (N-ter) (peptide) | 0.4 | 0.49 |  |  |  |  |  |  |  |  |  |
| ephrinA1-Fc (dimer) (Fc fusion) |  |  | 0 | 0.81 | 1.7 | 3.8 | 1 | 1 | 0.62 | 0 |  |
| m-ephrinA1 (monomer) (ligand) | 21 | 19 | 0.3 | 28 | 27 | 74 | 0.74 | 1 | 13 | 0.54 | 0.36 |
